Laboratory results as given in PMC4795164.

Substrate: N[C@@H](CSSC[C@H](N)C(=O)O)C(=O)O
Assay: purified protein
Type: biochemical, Homo sapiens
Conditions: 100 µM AdoMet, 50 µM PLP, 100 mM HEPES pH 7.4, 37 °C

B1: human CBS (cystathionine beta-synthase) (Homo sapiens) (protein)
chain: MPSETPQAEVGPTGCPHRSGPHSAKGSLEKGSPEDKEAKEPLWIRPDAPSRCTWQLGRPASESPHHHTAPAKSPKILPDILKKIGDTPMVRINKIGKKFGLKCELLAKCEFFNAGGSVKDRISLRMIEDAERDGTLKPGDTIIEPTSGNTGIGLALAAAVRGYRCIIVMPEKMSSEKVDVLRALGAEIVRTPTNARFDSPESHVGVAWRLKNEIPNSHILDQYRNASNPLAHYDTTADEILQQCDGKLDMLVASVGTGGTITGIARKLKEKCPGCRIIGVDPEGSILAEPEELNQTEQTTYEVEGIGYDFIPTVLDRTVVDKWFKSNDEEAFTFARMLIAQEGLLCGGSAGSTVAVAVKAAQELQEGQRCVVILPDSVRNYMTKFLSDRWMLQKGFLKEEDLTEKKPWWWHLRVQELGLSAPLTVLPTITCGHTIEILREKGFDQAPVVDEAGVILGMVTLGNMLSSLLAGKVQPSDQVGKVIYKQFKQIRLTDTLGRLSHILEMDHFALVVHEQIQYHSTGKSSQRQMVFGVVTAIDLLNFVAAQERDQK
How did the Km turn out when B1 was run?
The Km was 1300 ± 100 µM.

What about the Vmax of the same protein?
Its Vmax is 0.102 µmol/min/mg.

And the kcat?
Its kcat is 0.11 s⁻¹.

And the kcat/Km?
Its kcat/Km is 85 M⁻¹ s⁻¹.
